Test results reported in publication PMC8373075 (Nucleic Acids Research, 2021).

Biological target: T1, FLAG-CTIF-F460A (human, UniProt O43310 1-598, F460A)
T1 sequence (looked up): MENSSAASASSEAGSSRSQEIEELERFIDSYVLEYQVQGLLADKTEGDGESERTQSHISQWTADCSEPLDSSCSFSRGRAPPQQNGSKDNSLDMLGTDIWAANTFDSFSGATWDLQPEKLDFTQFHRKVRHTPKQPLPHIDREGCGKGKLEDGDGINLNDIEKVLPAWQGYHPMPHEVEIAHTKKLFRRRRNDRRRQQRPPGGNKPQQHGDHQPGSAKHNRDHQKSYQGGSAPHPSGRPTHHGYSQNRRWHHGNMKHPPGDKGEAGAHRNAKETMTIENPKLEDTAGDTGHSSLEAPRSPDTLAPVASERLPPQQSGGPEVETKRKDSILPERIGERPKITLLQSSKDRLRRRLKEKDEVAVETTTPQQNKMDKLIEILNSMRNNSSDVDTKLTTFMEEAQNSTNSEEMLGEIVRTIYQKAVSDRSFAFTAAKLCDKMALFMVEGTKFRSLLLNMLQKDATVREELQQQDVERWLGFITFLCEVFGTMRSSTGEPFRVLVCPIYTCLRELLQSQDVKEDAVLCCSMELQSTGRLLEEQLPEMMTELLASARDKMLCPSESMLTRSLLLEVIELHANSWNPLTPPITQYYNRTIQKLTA
Test: co-IP

B1: endogenous CBP80 (natural protein, human (endogenous in HEK293T), UniProt Q09161 1-790, looked up)
chain: MSRRRHSDENDGGQPHKRRKTSDANETEDHLESLICKVGEKSACSLESNLEGLAGVLEADLPNYKSKILRLLCTVARLLPEKLTIYTTLVGLLNARNYNFGGEFVEAMIRQLKESLKANNYNEAVYLVRFLSDLVNCHVIAAPSMVAMFENFVSVTQEEDVPQVRRDWYVYAFLSSLPWVGKELYEKKDAEMDRIFANTESYLKRRQKTHVPMLQVWTADKPHPQEEYLDCLWAQIQKLKKDRWQERHILRPYLAFDSILCEALQHNLPPFTPPPHTEDSVYPMPRVIFRMFDYTDDPEGPVMPGSHSVERFVIEENLHCIIKSHWKERKTCAAQLVSYPGKNKIPLNYHIVEVIFAELFQLPAPPHIDVMYTTLLIELCKLQPGSLPQVLAQATEMLYMRLDTMNTTCVDRFINWFSHHLSNFQFRWSWEDWSDCLSQDPESPKPKFVREVLEKCMRLSYHQRILDIVPPTFSALCPANPTCIYKYGDESSNSLPGHSVALCLAVAFKSKATNDEIFSILKDVPNPNQDDDDDEGFSFNPLKIEVFVQTLLHLAAKSFSHSFSALAKFHEVFKTLAESDEGKLHVLRVMFEVWRNHPQMIAVLVDKMIRTQIVDCAAVANWIFSSELSRDFTRLFVWEILHSTIRKMNKHVLKIQKELEEAKEKLARQHKRRSDDDDRSSDRKDGVLEEQIERLQEKVESAQSEQKNLFLVIFQRFIMILTEHLVRCETDGTSVLTPWYKNCIERLQQIFLQHHQIIQQYMVTLENLLFTAELDPHILAVFQQFCALQA
fold change of the co-immunoprecipitated amount against the IP of CTIF-WT: ~2.8 fold
